Assay: yeast display, Sf9 membrane polyspecificity reagent, FACS + sequencing; frameworks hold sequencing errors
Summary of the method: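 Galactose induction of a Saccharomyces cerevisiae BJ5465 synthetic nanobody display library ran 36–48 hours. The cells were then stained for 1 hour at 4 °C with 10% biotinylated, detergent-solubilized Sf9 membrane reagent, pulled down on streptavidin microbeads and FACS-sorted into low and high (top ~1%) gates on expression and reagent-binding fluorescence. Labels for polyreactivity follow the gate of origin.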

Row | Sequence | polyreactivity (PSR sort gate)
1 | QVQLVESGGGLVQAGGSLRLSCAASGSIFLRYAMGWYRQAPGKERELVAAISLSGGNTYYADSVKGRFTISRDNSKNTVYLQMNSLKPEDTAVYYCAATRTKRKFDYWGQGTQVTVSS | high polyreactivity
2 | QVQLVESGGGLVHAGGSLRLSCDASGLTFAYYAMGWYRQAPGKERELVAAISWNGGRTYYADSVKGRFTISRDNAKNTVYLQMNSLKPEDTAVYYCAAQVTSSFYWGQGTQVTVSS | high polyreactivity
3 | QVQLVESGGGLVQAGGSLRLSCAASGSIFGDNAMGWYRQAPGKERELVAAISIVGSTSYADSVKGRFTISRDNAKNTVYLQMNSLKPEDTAVYDCAAEIVRSDTGFDYWGQGTQVTVSS | low polyreactivity
4 | QVQLVESGGGLVQAGGSLRLSCAASGRTFYSYVMGWYRQAPGKERELVAAISGRGVSTYYADSVKGRFTISRDNAKNTVYLQMNSLKPEDTAVYYCAAETVHGSADFDYWGQGTQVTVSS | low polyreactivity
5 | QVQLVESGGGLVQAGGRLRISCAASGRTFGRYTMGWYRQAPGKERELVASISNTARTNYADSVKGRFTISRDNAKNTVYLQMNSLKPEDTAVYYCAAERAILSSDKQSLWRFDYWGQGTQVTVSS | low polyreactivity
6 | QVQLVESGGGLVQAGGSLRLSCAASGRTFSKYAMGWYRQAPGKERELVAAITDGRGDTYYADSVKGRFTISRDNEKNTVYLQMNSLKPEDTAVYYCAADPGYSLYEYWGQGTQVTVSS | low polyreactivity
7 | QVQLVESGGGLVQAGGSLRLSCAASGSIFEFNTMGWYRQAPGKERELVAAISSADTTNYADSVKGRFTISRDNAKNTVYLQMNSLKPEDTAVYYCNKELHLSATLRVLGFDYWGQGTQVTVSS | low polyreactivity
8 | QVQLVESGGGLVQAGGSLRLSCAASGFTITYNAMGWYRKAPGKEREFVAAITNNGSTYYADSVKGRFTISRDNAKNTVYLQMNSLKPEDTAVYFCAVDPGYYDEYNYWGQGTQVTVSS | low polyreactivity
9 | QVQLVESGGGLVQAGGSLRLSSAASGFTFRAYAMGWYRQAPGKERELVAGISTRGGRTYYADSVKGRFTISRDNAKNTVYLQMNSLKPEDTAVYYCNAVDKTGKYDYWGQGPQVTVSS | high polyreactivity
10 | QVQLVESVGGLVQAGGSLRLSCAASGSIFQPYAMGWYRHAPGKEREFVAAISRSGGITYYADSVKGRFTISRDNAKNTVYLQMNSLKPEDTAVYYCATGRQVVRSYSEGDYCGQGTQVTVSS | low polyreactivity
11 | QVQLVESGAGLVQAGGSLRLSCAGSGLTFRGNAMGCYRQAPGKERELVAAISWSDDTTDYADSVKGRFTISRDNAKNTVYLQMNSLKPEDTAVYYCAARRRIYRSMGFWGQGSQVTVSS | low polyreactivity
12 | QVQLVESGGGLVQAGGSLRLSCAASGRIFVRYAMGWYRQAPGKERELVAAIRWSGGRTYYADSVKGRFTISRDNAKNTFYLQMNSLKPEDTAVYYCAVRYRDLFGYWGQGTQVTVSS | high polyreactivity
13 | QVQLVESVGGLVQAGGRLRLTCAASGFIFTHYAMVWYRQAPGKERELVAAISWNGGRTYYADSVKGRFTISRDNANITVYLQMNSLKPEDTAVYYCAARIYLSKSFNFWGQGTQVTVSS | high polyreactivity
14 | QVQLVESGGGLVQAGGSLRLSCAASGRIFSYNAMGWYRQAPGKERELVAAISSDGSTYYADSVKGRFTISRDNAKNSVYLQMNSLKPEDTAVYYCAADTWRDGDDYWGQGTQVTVSS | low polyreactivity
15 | QVQLVESGGGLVQAGGSLRLSCAASGNTFKYYAMGWYRQAPGKERELVAAITWNGARTYYADSVKGRFTISRDNAKNTVYLQMNSLKPEDTAVYYCNARQGYRFDYWGQGTQVTVSS | high polyreactivity
16 | QVQLVESGGGLVQAGGSLRLSCAASGGISHRYAMGWYRQAPGKERELVAAITASGTSTNYADSVKGRFTISRDNAKNTVYLQMNSLKPEDTAVYYCAARYYSFFYPYYYWGQGTQVTVSS | high polyreactivity
17 | QVQLVESGGGLVQAGGRLRLSCAASGRTFTQYTMGWYRQAPGKERELVAAISSGGSTYYADSVKGRFTISRDNAKNTVFLQMNSLNPEDTAVYYCAARSYYAKSRYYYWGQGTQVTVSS | high polyreactivity
18 | QVQLVESGGGLVQAGGSLRLSCAASGFTFDGYAMGWDRQAPGKESELVAAISDSGDSTYYADSVKGRFTISRDNAKNTVYLQMNSLTPEDTAVYYCAAGLGYYWSDYFADDSCGQGTQVTVSS | low polyreactivity
19 | QDQLVESGVGLVQAGGSLRLSCASSGRIFDPYAMGWYRQAPGKERELVARITWRGGRTYYADSVKVRFTISLDNAKNTVYLQMNSLKPEDTAVFYCNADFYYRYYCAYDYWGQGTQVTVSS | high polyreactivity
20 | QVQLVESGGGLVQAGVSLRLSCAASGSIFDSNAMGWYRQAPGKERELVATISSVGSTNYADSVKGRFTISRDNAKNTVYLQMNSLKPEDTAVYYCARVVDAQGYYSAASGGYYWGQGTQVSVSS | low polyreactivity
21 | QVQLVESGGGLVQAGGSLRLSCAAYGSTFEYYVMGWYRQAPGKERELVAAISGSGGGTYYADSVKGRFTISRDNAKNTVSLQMNSLKPEDTAVYYCAAVATLEKYDYWGQGNQVTVSS | low polyreactivity
22 | QVQLVESGGGLVQAGGSLRLSCAASGSTFVRNAMGWYRQPPGKDRELVAAISWRGGSTYYADTVKGRFTISRDNAKNTVYLQMNSLKPEDTAVYYCNKVGTWQGPYDYWGQGTQVTVSS | high polyreactivity

Row | Sequence | polyreactivity (PSR sort gate)
23 | QVQLVESGGGLVQAGGSLRLSCAASGRTFGTYAMGWYRQAPGKERELVAAIRSNAGSTYYADSVKGRFTISRDNAKNTVYLQMNSLKPEDTAVYYCAKSYRSSRRYNYWGQGTQVTVSS | high polyreactivity
24 | QVQLVESGGGLVQAGGSLRLSCAASGFTFYQYAMGWYRQAPGKEREFVAAISSSGSSTYYADSVKGRFTISRDNAKNTVYLQMNSLKPEDTEVYYCNAYFRNWRYSPGGYWGQGTQVTVSS | high polyreactivity
25 | QVQLVESGGGLLQAGGRLRLSCAASVSIFTRYDMGWYRQAPGKEREFVAAISRGGGSTYYADSVKVRFTISLDNAKNTVYLQMISLKPENTAVYYCAPGVARYVKTASDYWGHGTQVTVSS | high polyreactivity
26 | QVQLVESGGGLVQAGGSLRLICAASGSIFHIYMGWYRQAPGKEMEVVASISYRGGTTYYADSVKGRFTISRDNAKNSVYFQMNSLKPEDTAVYYCNVDRYFYHYGRYGHMDYWGQATQVTVSS | low polyreactivity
27 | QVQLVESGGGLVQAGGSLRLSCAASGFIFTHNAMGWYRQAPGKERELVAAISRSGGRTYYADSVKGRFTISRDNAKNTVYLQMNSLKPEDTAVYYCAKDAYVYGMGYWGQGTQVTVSS | high polyreactivity
28 | QVQLVESGGGLVQAGGSLRLSCAASGGIFSRNAMGWYRQAPGKERELVADISRTGDSTYYADSVKGRFTISRDNAKNTVYLQMNSLKPEDTAVYYCNRDAFVGDRTVRVTTTNWGQGTQVTVSS | low polyreactivity
29 | QVQLVESGGGLVQAGGSLRLSCAASGFIFRRNAMGWYRQAPGKERELVAAITKSGGSTYYADSVKGRFTISRDNAKNTVYLQMNSLKPEDTAVYYCAASDASGGGYWGQGTQVTVSS | high polyreactivity
30 | QVQLVESGGGLVQAGGSLRLSCAASGFTFQYYVMGWYRQAPGKERELVAAISWSGGSTYYADSVKGRFSISRDNAKNTVYLQMNSLKPEDTAVYYCAAEYDEFLVRFGVWYWFDYWGQGTQVTVSS | high polyreactivity
31 | QVQLVESGGGLVQAGGSLRLSCAASGFIFRFYAMGWYRQAPGKERELVAGISSSGGSTYYADSVKGRFTISRDNAKNTVYLQMNSLKPEDTAVYYCNAKRSDQSSKTFNYWGQGTQVTVSS | low polyreactivity
32 | QVQLVESGGGLVQAAGSLRLICDASGFTFDLYAMGWYRQAPGKERELVAAISWSGGSTRYADSVKGGFTISRDNSKNTVYLQMTSLKPEDTALYYCARQPRLYFKVKLYGYWGQGTQVTVSS | high polyreactivity
33 | QVQLVESGGGIVQAGGSLRLSCAATGRTFGYNAMGWYRQAPGKERELVAAIRTIGDSTYYADSVKGRFTISRDNAKNTVYLQMNSLKPEDTAVYYCAARKLRSRYDYWGQGTQVTVSS | high polyreactivity
34 | QVQHVESGGGLVQEGGSLRLSCAASGRIFRTNAMVWYRQAPGKERELVAAITRDGTTNYADSVKGRFTISRDNAKNTVYLQMNSLIPEDTAVYYCNARYRRSPIKFTYVRYVYEYDYWGQGTQVTVSS | low polyreactivity
35 | QVQLVESGGGLLQAGGSLRLSCAASGRTFGHYAMGWYRQAPGKEREFVAAITRGGGRTYYADSVKGRFTISRDNAKNTVYLQMNSLKPEDTAVYYCARKQYWGYDYWGQGTQVTVSS | low polyreactivity
36 | QVQLVESGGGLVQAGGSLRLSCAASGNTLRYNVMGWYRQAPGKERELVAAISGGGSTSYTDSVKGRLTISRDNAKNTVYLQMNSLKPEDTAVYYCATRSFVGGRGRDSDYWGQGTQVTVSS | low polyreactivity
37 | QFQLVESGRGLVQAGGSLRLSCAASVRTFGFNAMGRYRQAPRKERELVAAISGSGGRTYYADSVKGRFTISRDKAKNTVYLQMNSLKPEDTAVYYCAAGARRGGSGYWGQGTQVTVSS | high polyreactivity
38 | QVQIVESGGVLVQAGGSLRLSCAASGSITYFNAMGWYRQAPGKERELVAAISYSGGSTYYADSVKGRFTISRDNAKNTVYLQMNSLKPEDTAVYYCAADRLIGWRKTYYYWGQGTQVTVSS | high polyreactivity
39 | QVQLVESGGGLVQAGGSLRLSCAASGSTFYDNAKGWYRQAPGKERELVAGITESGGSTYYADSVKGRFTISRDNAKNTVYLQMNSLKPEDTAVYYCAAVYTYIPYLTYYYWGQGTQVTVSS | low polyreactivity
40 | QVQLVESGGGLVQAGGSLRLSCAASGSIFYSYAMGWYRQAPGKERELVAAISYRGGSTYYADSVKGRFTISRDNAKNTVYLQMNSLKPEDTAVYYCAADARQSRYNYWGQGTQVTVSS | high polyreactivity
41 | QVQLVESGGGLVQAGGSLRLSCAASGRIFYDYAMGWYRQAPGKEREFVAAIRWRGGSTYYADSVKGRFTISRDNAKNTVYLQMNSLKPEDTAVYYCATKSYYKFGYWGQGTQVTVSS | high polyreactivity
42 | QVQLVESGGGLVQAGGSLRLSCAASGSTFAFNAMGWYRQAPGKERELVAAIYSDGSTDYADSVKGRFSISRDNAKNTVYLQMNSLKPEDPAVYYCADDWGWRYVLPVGWFRYGYWGQGTQVTVSS | low polyreactivity
43 | QVQLVESGGGLVQAGGSLRLSCAASGSTFGFYAMGWYRQAPGKERELVAAISGRGGSTYYADSVKGRFTISRDNAKNTVYLQMNSLKPEDTAVYYCAAKYYGEMYYWGQGTQVTVSS | low polyreactivity

— the nanobody polyreactivity screen of Harvey et al. (2022)
